Test results reported in patent publication US20230140435.
Residue numbers refer to the chain shown, from its start. Numbers in names are those of the source.

B1: tubulin tyrosine ligase (TTL) (protein)
chain: MYTFVVRDENSSVYAEVSRLLLATGHWKRLRRDNPRFNLMLGERNRLPFGRLGHEPGLVQLVNYYRGADKLCRKASLVKLIKTSPELAESCTWFPESYVIYPTNLKTPVAPAQNGIQPPISNSRTDEREFFLASYNRKKEDGEGNVWIAKSSAGAKGEGILISSEASELLDFIDNQGQVHVIQKYLEHPLLLEPGHRKFDIRSWVLVDHQYNIYLYREGVLRTASEPYHVDNFQDKTCHLTNHCIQKEYSKNYGKYEEGNEMFFKEFNQYLTSALNITLESSILLQIKHIIRNCLLSVEPAISTKHLPYQSFQLFGFDFMVDEELKVWLIEVNGAPACAQKLYAELCQGIVDIAISSVFPPPDVEQPQTQPAAFIKL
B2: TTL catalytic-dead construct (TTL-E331Q) (protein)
chain: B1 chain with E331Q

Target: free tubulin (tubulin dimers) of isolated rat cardiomyocytes

Row | Protein | free:polymerized tubulin ratio (microtubule fractionation assay, western blot, isolated rat cardiomyocytes)
1 | B1 | Both TTL and TTL-E331Q overexpression increased the amount of free tubulin relative to polymerized microtubules
2 | B2 | Both TTL and TTL-E331Q overexpression increased the amount of free tubulin relative to polymerized microtubules
